{"source": "patent US20220226454A1", "about": "(KEYSTONE BIO, published 2022)", "binders": {"B1": {"name": "KB-001 mouse monoclonal antibody (antibody, V domains shown)", "VH": "EVQLKQSGPGLVAPSQSLSITCTVSGFSLSIYSVHWVRQPPGKGLEWLGMIWGGGSSDYNSALKSRLSISKDNSKSQVFLKMNSLQTDDTAMYYCARNGNFYAMDYWGQGTSVTVSS", "VL": "QIVLTQSPAIMSASLGERVTMTCTASSSVSSSFLHWYQQKPGSSPQLWIYSTSNLASGVPARFSGSGSGTSYSLTISSMEAEDAATYYCHQYHHSPYIYTFGGGTKLEIKR", "notes": "also called Pg/gingipain antibody"}}, "key": {"[1]": {"molecular_target": "whole bacterial cells of P. gingivalis (Porphyromonas gingivalis)"}, "[2]": {"molecular_target": "T1, recombinant GST-gingipain rGP-1 fusion protein", "T1 construct": "also called GST-Gp; GST-Gingipain recombinant protein", "assay": "ELISA, wells coated with rGP-1 and probed with varying concentrations of KB001"}}}
{"binder": "B1", "values": [{"measurement": "Kd", "setting": "[1]", "result": 11.4, "unit": "nM"}, {"measurement": "binding result", "setting": "[2]", "result": "binds"}]}
